Laboratory results from publication PMC4657330, “Rac1 augments Wnt signaling by stimulating β-catenin–lymphoid enhancer factor-1 complex assembly independent of β-catenin nuclear import” (Journal of Cell Science, 2015).
Changes are numbered by the printed parent chain. Numbers in names are those of the source.

B1: myc-tagged β-catenin S191A (natural protein, UniProt P35222 1-781, looked up)
chain: MATQADLMELDMAMEPDRKAAVSHWQQQSYLDSGIHSGATTTAPSLSGKGNPEEEDVDTSQVLYEWEQGFSQSFTQEQVADIDGQYAMTRAQRVRAAMFPETLDEGMQIPSTQFDAAHPTNVQRLAEPSQMLKHAVVNLINYQDDAELATRAIPELTKLLNDEDQVVVNKAAVMVHQLSKKEASRHAIMRAPQMVSAIVRTMQNTNDVETARCTAGTLHNLSHHREGLLAIFKSGGIPALVKMLGSPVDSVLFYAITTLHNLLLHQEGAKMAVRLAGGLQKMVALLNKTNVKFLAITTDCLQILAYGNQESKLIILASGGPQALVNIMRTYTYEKLLWTTSRVLKVLSVCSSNKPAIVEAGGMQALGLHLTDPSQRLVQNCLWTLRNLSDAATKQEGMEGLLGTLVQLLGSDDINVVTCAAGILSNLTCNNYKNKMMVCQVGGIEALVRTVLRAGDREDITEPAICALRHLTSRHQEAEMAQNAVRLHYGLPVVVKLLHPPSHWPLIKATVGLIRNLALCPANHAPLREQGAIPRLVQLLVRAHQDTQRRTSMGGTQQQFVEGVRMEEIVEGCTGALHILARDVHNRIVIRGLNTIPLFVQLLYSPIENIQRVAAGVLCELAQDKEAAEAIEAEGATAPLTELLHSRNEGVATYAAAVLFRMSEDKPQDYKKRLSVELTSSLFRTEPMAWNETADLGLDIGAQGEPLGYRQDDPSYRSFHSGGYGQDALGMDPMMEHEMGGHHPGADYPVDGLPDLGHAQDLMDGLPPGDSNQLAWFDTDL
notes: from the Long laboratory (Wu et al., 2008); also called pmyc-β-catenin-S191A; source: NIH 3T3, transfected, in lysate and in fixed cells
B2: myc-tagged β-catenin S605A (natural protein, UniProt P35222 1-781, looked up)
chain: B1 chain with A191S, S605A
notes: from the Long laboratory (Wu et al., 2008); also called pmyc-β-catenin-S605A; source: NIH 3T3, transfected, in lysate and in fixed cells

Biological target: T1, HA-tagged LEF-1 (UniProt Q9UJU2 1-399)
T1 construct: LEF-1 (lymphoid enhancer factor 1); written both HA-LEF-1 and LEF-1-HA; also called pHA-LEF-1; HA-LEF-1; source: HEK293, transfected, in lysate; NIH 3T3, transfected, in lysate and in fixed cells
T1 sequence (Q9UJU2 whole entry): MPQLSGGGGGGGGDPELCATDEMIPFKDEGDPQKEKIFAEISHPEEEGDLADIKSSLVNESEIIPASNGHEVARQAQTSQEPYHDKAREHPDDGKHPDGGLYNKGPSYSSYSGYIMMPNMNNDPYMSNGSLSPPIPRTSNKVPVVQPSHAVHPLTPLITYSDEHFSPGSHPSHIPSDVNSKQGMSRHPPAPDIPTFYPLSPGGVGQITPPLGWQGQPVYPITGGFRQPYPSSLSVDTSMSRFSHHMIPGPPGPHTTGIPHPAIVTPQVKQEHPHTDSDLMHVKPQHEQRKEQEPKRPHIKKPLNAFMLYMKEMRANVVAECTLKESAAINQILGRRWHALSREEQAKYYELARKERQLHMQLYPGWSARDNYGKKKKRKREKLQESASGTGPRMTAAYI
Assay: co-IP; NIH 3T3 lysates, pLEF-1-HA co-transfected with pβ-catenin-myc constructs; IP with HA mAb or isotype control IgG, blot with anti-myc; densitometry over three independent experiments
Details: partners not purified

| Binder | reduction in binding relative to β-catenin-WT (densitometry of the co-IP) |
| --- | --- |
| B1 | ~20% |
| B2 | ~50% |
